Measured values from patent publication US20230077716A1 (published 2023).
Where “and” joins values, the source holds several entries; their conditions need not be identical. Equal entries are not always repeated.

Target: recombinant B/Phuket/3073/2013 NA ectodomain (tetramer) (UniProt P16199 79-465)
Assay: BLI

B1: 2E01 Fab (Fab, V domains shown)
VH: EVQLVQSGAEVKKPGSSVKVSCKASGYTFINHALSWVRQAPGQGLEWVGGIIPIFGLAKYGQKFQDRVTITADESTKTAYMDLRSLRSDDTAVYYCARDTVAVYEDFDWSSPYFFYMDVWGKGTTVTVSS
VL: EIVLTQSPATLSLFPGERATLSCRASQSAGSKSLAWYQHKVGQPPRLLINGASSRATGIPDRFSGSGSGPDFNLTISRLEPEDFAVYYCQRYGTSLVTFGGGTKVEIK
Kd: 441 nM and 150 nM
